One experiment concerns the target human PD-1 (human, UniProt Q15116 25-167). Put plainly: ELISA, plate coated with the antigen.
In a further experiment the target is T1, human B7H3 (human, UniProt Q5ZPR3 29-461, limits assumed).
T1 construct: also called CD276
T1 sequence (looked up): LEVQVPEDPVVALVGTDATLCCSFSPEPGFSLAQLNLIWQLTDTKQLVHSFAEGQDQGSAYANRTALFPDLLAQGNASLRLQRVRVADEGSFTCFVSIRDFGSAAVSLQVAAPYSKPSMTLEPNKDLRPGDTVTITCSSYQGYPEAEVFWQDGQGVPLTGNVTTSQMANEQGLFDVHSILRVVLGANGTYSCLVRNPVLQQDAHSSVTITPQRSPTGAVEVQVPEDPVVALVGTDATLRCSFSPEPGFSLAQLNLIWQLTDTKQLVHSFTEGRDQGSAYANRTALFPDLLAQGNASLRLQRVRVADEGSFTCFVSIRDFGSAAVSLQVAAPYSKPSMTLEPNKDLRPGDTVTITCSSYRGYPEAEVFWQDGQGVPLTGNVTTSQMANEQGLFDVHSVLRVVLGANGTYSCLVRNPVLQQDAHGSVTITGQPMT
Put plainly: ELISA, plate coated with the antigen.

A further experiment has as its target T2, human B7H4 (human, UniProt Q7Z7D3 25-258, limits assumed).
T2 construct: also called VTCN1
T2 sequence (looked up): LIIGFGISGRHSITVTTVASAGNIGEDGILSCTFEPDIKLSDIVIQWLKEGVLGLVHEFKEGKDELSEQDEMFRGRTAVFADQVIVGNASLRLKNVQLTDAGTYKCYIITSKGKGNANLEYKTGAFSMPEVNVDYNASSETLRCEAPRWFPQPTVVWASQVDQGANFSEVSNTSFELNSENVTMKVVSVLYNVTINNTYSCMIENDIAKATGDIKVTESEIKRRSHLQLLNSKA
Put plainly: ELISA, plate coated with the antigen.

Experiment [1] concerns the target T3, human B7H6 (human, UniProt Q68D85 25-262).
T3 construct: also called NCR3LG1
T3 sequence (looked up): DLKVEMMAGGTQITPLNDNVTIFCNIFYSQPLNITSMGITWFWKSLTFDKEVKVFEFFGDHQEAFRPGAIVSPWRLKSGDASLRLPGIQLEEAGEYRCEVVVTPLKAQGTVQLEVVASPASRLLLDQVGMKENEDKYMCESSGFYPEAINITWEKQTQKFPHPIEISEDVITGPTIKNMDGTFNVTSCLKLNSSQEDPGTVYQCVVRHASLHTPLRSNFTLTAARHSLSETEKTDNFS
Put plainly: ELISA, plate coated with the antigen. A general note: An ELISA detects its analyte on a solid surface through an enzyme-linked reagent.

Experiment [2] has as its target T4, recombinant human VISTA (His-tagged) (human, UniProt Q9H7M9 33-194).
T4 construct: bought soluble protein (Sino Biological); also called hVISTA; human VISTA polypeptide
The experiment in a line: antigen-binding ELISA; HMBD-002 10 mg/mL in F2, day 0.

The target of experiment [3] is T4, recombinant human VISTA (His-tagged). The experiment in a line: antigen-binding ELISA; HMBD-002 10 mg/mL in F3, day 0.
Experiment [4] shares this target. The experiment in a line: antigen-binding ELISA; HMBD-002 10 mg/mL in F4, day 0.
Experiment [5] has the same target. Put plainly: antigen-binding ELISA; HMBD-002 10 mg/mL in F6, day 0.
Experiment [6] has the same target. Put plainly: antigen-binding ELISA; HMBD-002 10 mg/mL in F7, day 0.
For experiment [7] the target is unchanged. Put plainly: antigen-binding ELISA; HMBD-002 in F5, day 10 at 40°C.
Experiment [8] has the same target. The experiment in a line: antigen-binding ELISA; HMBD-002 in F5, day 30 at 40°C.
Experiment [9] shares this target. Put plainly: antigen-binding ELISA; HMBD-002 in F6, day 20 at 40°C.
Experiment [10] shares this target. Put plainly: antigen-binding ELISA; HMBD-002 in F8, day 20 at 40°C.
The target is the same in experiment [11]. Put plainly: antigen-binding ELISA; HMBD-002 in F9, day 20 at 40°C.
The target in experiment [12] is T3, human B7H6. The experiment in a line: ELISA, plate coated with human B7H6, antibody titrated.
The target in the next experiment is human CTLA4 (human, UniProt P16410 36-162). The experiment in a line: ELISA, plate coated with human CTLA-4, antibody titrated.
In experiment [13] the target is T4, recombinant human VISTA (His-tagged). The experiment in a line: antigen-binding ELISA; reference standard run with the day 20 samples.
Experiment [14] has the same target. The experiment in a line: antigen-binding ELISA; reference standard run with the day 30 samples.
The target is the same in experiment [15]. The experiment in a line: ELISA on coated human VISTA, antibody diluted in buffer of pH 6.5.
Experiment [16] has the same target. The experiment in a line: SPR (Biacore), VISTA-HIS captured, antibody as analyte, 1:1 model; SPR (Biacore), human VISTA.
For a further experiment, the target named is human C1q protein (human, UniProt P02745 23-245; P02746 28-253; P02747 29-245). Put plainly: ELISA, plate coated with human C1q protein, detection with HRP anti-human Fc antibody.
Chain of human C1q protein (P02745 23-245 limits assumed, chain 1 of 3): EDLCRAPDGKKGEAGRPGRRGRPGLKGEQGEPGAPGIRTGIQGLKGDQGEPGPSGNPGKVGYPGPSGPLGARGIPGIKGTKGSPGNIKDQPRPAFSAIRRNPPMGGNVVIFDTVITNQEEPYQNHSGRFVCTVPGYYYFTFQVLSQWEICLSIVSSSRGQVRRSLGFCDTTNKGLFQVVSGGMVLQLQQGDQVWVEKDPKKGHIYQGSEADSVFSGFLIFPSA
Chain of human C1q protein (P02746 28-253 limits assumed, chain 2 of 3): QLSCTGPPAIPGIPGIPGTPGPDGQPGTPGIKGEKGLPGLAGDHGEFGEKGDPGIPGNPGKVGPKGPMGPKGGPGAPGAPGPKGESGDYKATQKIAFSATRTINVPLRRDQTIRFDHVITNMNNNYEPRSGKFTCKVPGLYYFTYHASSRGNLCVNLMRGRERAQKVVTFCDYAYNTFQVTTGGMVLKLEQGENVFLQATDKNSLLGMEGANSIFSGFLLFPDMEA
Chain of human C1q protein (P02747 29-245 limits assumed, chain 3 of 3): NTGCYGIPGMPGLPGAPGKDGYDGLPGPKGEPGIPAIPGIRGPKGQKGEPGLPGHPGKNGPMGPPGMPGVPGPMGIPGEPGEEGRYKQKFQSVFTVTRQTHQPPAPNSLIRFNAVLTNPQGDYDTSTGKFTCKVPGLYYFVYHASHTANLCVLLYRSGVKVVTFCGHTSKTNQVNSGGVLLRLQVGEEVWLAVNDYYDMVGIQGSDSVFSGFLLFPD

Chain of human PD-1 (Q15116 25-167 limits assumed): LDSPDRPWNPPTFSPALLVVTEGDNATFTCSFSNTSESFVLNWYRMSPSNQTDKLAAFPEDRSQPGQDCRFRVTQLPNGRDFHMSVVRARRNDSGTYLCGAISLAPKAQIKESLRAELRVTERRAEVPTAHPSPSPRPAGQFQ
Chain of human CTLA4 (P16410 36-162 limits assumed): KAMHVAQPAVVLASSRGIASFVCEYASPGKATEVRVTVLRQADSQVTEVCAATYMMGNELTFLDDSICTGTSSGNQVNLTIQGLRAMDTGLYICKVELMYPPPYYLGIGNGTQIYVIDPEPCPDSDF

B1: anti-VISTA clone V4-C24 IgG1 (antibody, V domains shown)
VH: QVQLQESGPGLVKPSDTLSLTCTVSGYSITSDYTWNWIRQTPGKGLEWIGHITYSGSVSYNPSLRSRVTISRDTSKNQFSLKLSSVTAADTATYSCARALYYPWYFDVWGTGTTVTVSS
VL: EIVLTQSPATLSLSPGERATLSCRASSSVGYIHWYQQKPGQAPRPLIYTTSYRATGIPARFSGSGSGTDNTLTISSLEPEDSAVYYCQQWSSYPPITFGGGTKLEVKR
As to B1, the binding result with human PD-1, with human B7H3, with human B7H4 and with human B7H6 [1] was “no binding (tested: log -7.5 M)” each time.

B2: V4-C26 hIgG4 (antibody)
heavy: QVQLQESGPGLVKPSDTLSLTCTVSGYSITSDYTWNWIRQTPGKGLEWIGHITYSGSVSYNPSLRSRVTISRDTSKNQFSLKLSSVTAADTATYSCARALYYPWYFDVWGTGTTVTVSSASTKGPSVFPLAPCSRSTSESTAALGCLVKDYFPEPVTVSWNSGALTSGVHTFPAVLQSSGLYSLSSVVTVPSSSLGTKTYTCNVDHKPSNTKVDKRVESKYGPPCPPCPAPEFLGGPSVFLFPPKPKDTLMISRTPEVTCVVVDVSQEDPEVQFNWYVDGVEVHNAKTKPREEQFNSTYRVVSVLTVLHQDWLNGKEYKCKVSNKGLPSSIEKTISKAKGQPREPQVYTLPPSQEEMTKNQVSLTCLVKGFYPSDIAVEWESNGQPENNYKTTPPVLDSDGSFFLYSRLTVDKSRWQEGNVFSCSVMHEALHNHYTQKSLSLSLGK
light: EIVLTQSPATLSLSPGERATLSCRASSSVGYIHWYQQKPGQAPRPIIYTTSNRATGIPARFSGSGSGTDNTLTISSLEPEDSAVYYCQQWSSYPPITFGGGTKLEVKRTVAAPSVFIFPPSDEQLKSGTASVVCLLNNFYPREAKVQWKVDNALQSGNSQESVTEQDSKDSTYSLSSTLTLSKADYEKHKVYACEVTHQGLSSPVTKSFNRGEC
notes: human IgG4 (S228P)/kappa format; also called HMBD-002; HMBD-002-V4C26
B2: the EC50 (as a rule, the concentration giving half of the maximal effect) in experiment [2] came to 0.0339 nM; in experiment [3], 0.0308 nM; in [4] it was 0.0357 nM; in [5], 0.0294 nM; in experiment [6], 0.0289 nM; in experiment [7], 0.0341 nM. The half-maximal effective concentration (EC50) in experiment [8] was 0.0223 nM; in experiment [9], 0.0186 nM; in experiment [10], 0.0248 nM; in [11] it was 0.0223 nM; in [13], 0.0355 nM; in experiment [14], 0.0527 nM. Besides, the half-maximal effective concentration (EC50) in experiment [15] stood at 0.0363 nM. For the same molecule, the binding result with human B7H6 [12] was “no binding (tested: about 3e-8 M)”; in the experiment with human CTLA4, “no binding (tested: about 3e-8 M)”; with human C1q protein, “no binding (tested: about 2e-7 M)”. Moreover, the Kd (commonly a measure of binding affinity in units of concentration) in experiment [16] amounted to 0.407 nM.
